± gives the half width of the 95% confidence interval.
Assays:
[1] = folding stability dG unfold (combined trypsin and chymotrypsin); higher = more stable
Procedure, shortened: (§1)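 Only designs with AlphaFold2 dimer inter-PAE above 15 were retained; each was a mini-protein under 80 residues with no cysteine, in a PA-tagged cDNA display construct. After digestion with trypsin and chymotrypsin and sequencing, K50 was inferred by Bayesian fitting of counts, and unfolding free energy was derived per protease or combined against a sequence-predicted unfolded-state K50 and a shared folded-state K50.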

[2] = folding stability dG unfold from chymotrypsin proteolysis; higher = more stable
Procedure, shortened: as §1

[3] = folding stability dG unfold from trypsin proteolysis; higher = more stable
Procedure, shortened: as §1

| Sequence | folding stability dG unfold [1] [kcal/mol] | folding stability dG unfold [2] [kcal/mol] | folding stability dG unfold [3] [kcal/mol] |
| --- | --- | --- | --- |
| SASEDGYVVVEITIPIEIYMPMYKYSPDGKWKWEPHQMEIKLEITVQVKKDPEAADRAREFADRILDYISAG [r14_830_TrROS] | 3.22 ± 0.23 | 3.59 ± 0.21 | 2.7 ± 0.13 |
| SASFTLTITPVSTLPGGEVKYEVTVTTPTATVTLSATYDPATGLITVTFPETGSTVTFDPATGTVTVTPSAG [r14_260_JUSTAS] | 5.05 ± 0.083 | 5.089 ± 0.032 | 3.93 ± 0.12 |
| SASITHTVPGVQVRAYLNPDGYMFIQVYNPNDGEPKQPIWMPPDHITDVEVTGDWVKITIKMDPEDFKLSAG [r14_755_TrROS] | 2.06 ± 0.16 | 2.32 ± 0.08 | 1.25 ± 0.052 |
| SASITLTAPGGKPVTLPVPPSLSVLSVELDPATGRWTIELQDPATGERFTVTVYAPPSGPAGVEVTPNVSAG [r14_311_JUSTAS] | 3.486 ± 0.032 | 3.409 ± 0.02 | 3.61 ± 0.04 |
| SASLGISKIETSSLPNGTTVVTVTFSKPNLKVTLTKNPDGTITITLSPEVKKLPEEVKKLVEELAAKLSSAG [r14_555_JUSTAS] | 3.95 ± 0.095 | 3.97 ± 0.048 | 3.97 ± 0.1 |
| SASMGPEALVERIAEEIRKELGVDAGYKAPVEVRRPPDLVVVDAKLTVYKPDGNPLGEKTVRVVLPPLLSAG [r14_708_JUSTAS] | 0.129 ± 0.29 | 0.0373 ± 0.22 | -0.0399 ± 0.083 |
| SASMIIDPVSSEEEIEKLVKEAIEAGIGGEGLIVLRSDGKVYRITIEPGTGKVKKEEVMSPEELAAKLGSAG [r14_913_JUSTAS] | 2.12 ± 0.16 | 2.11 ± 0.051 | 1.75 ± 0.053 |
| SASMIQKYFKSQGYKIEKIEEKTLPNGERVVSYKITSTVNVPPNEKGVSKPVKKTTELTLSTEEAIKLGSAG [r14_16_JUSTAS] | 1.04 ± 0.15 | 1.32 ± 0.21 | 0.304 ± 0.14 |
| SASMSPEELIEIEIELKRGNRNFTLKIKIPVGLSEEEIEEAIEKAKKELEEKVKKLEEEPPLNPENNLISAG [r14_70_JUSTAS] | 3.11 ± 0.12 | 3.45 ± 0.06 | 2.33 ± 0.17 |
| SASSETFEIEVKVKLFFRDPEKGKLVEREFDAIVKVTVNPETGEVKVEVYFKPLGKPVTITLPPGASIESAG [r14_587_TrMRF] | 4.26 ± 0.21 | 4.54 ± 0.16 | 3.13 ± 0.2 |
| SASSITVSYDESTGVTTVTVDGGGFTFTVPNPEGKTLTVTVTQEALPDGTTRVTVTITFPDGSTTTVVVSAG [r14_675_JUSTAS] | 5.06 ± 0.17 | 5 ± 0.18 | 4.17 ± 0.2 |
| SASSSTTTSSGTLEEVLQQVEDYLKANPNTLVTIAPPDGTTTTVDLSYSPSIAVNGDPSGLTTVTITNSSAG [r14_807_JUSTAS] | 1.23 ± 0.09 | 0.932 ± 0.032 | 1.57 ± 0.057 |
| SASTSSISTETESRKISSFTVGDKEYEIYENTTTTTLPDGSVVTTTTLSVKDPSSNVTKTLSSTTTFTPSAG [r14_195_JUSTAS] | 2.32 ± 0.12 | 2.49 ± 0.03 | 2.09 ± 0.044 |
| SATGAIVLEKPVEFNIPDKNGKPVFKSKVLIFVDPGKDKVYALIYDPKTGKKLIVEFNSPEEVKKFFESSAG [r14_508_TrMRF] | 1.65 ± 0.077 | 1.54 ± 0.12 | 1.65 ± 0.031 |
| SATITVHNPWNGQPIEIRIDPGMTPEEIKKKIEKVPGIPPGTRDAVEKAIEYFEAYRQNPEQRKKLKKESAG [r14_732_TrROS] | 0.675 ± 0.13 | 0.934 ± 0.096 | 0.241 ± 0.093 |
| SATMLDYILDMAREQQEKNGKPVPITITIPVRRDPNGKFRMNEIHEELIKALKEAFPNVPIKIEMVPPPSAG [r14_636_TrROS] | 2.28 ± 0.12 | 2.27 ± 0.036 | 2.23 ± 0.076 |
| SATPTLTLEFEVEVEDPNAPGVPAPAKFTAEVAVTPPPVLYVGGEPWAGALLEQGLVTVGPDGLIAIPASAG [r14_582_TrMRF] | 0.775 ± 0.13 | 1.11 ± 0.13 | 0.442 ± 0.072 |
| SAVFIEVERDPGDGAYEVTIHYLIPLRPYKDPDGKQKPPVYFMIEITIRFSPNGQIRDLDIDIFPFDAPSAG [r14_246_TrROS] | 4.28 ± 0.37 | 4.41 ± 0.15 | 3.53 ± 0.13 |
| SAVITLPDGTTVPSTVVEETETPDGVRITVRTERDGVLEIVDLYEPPGGEVTVLSTEVVPVPPGDPALESAG [r14_13_JUSTAS] | 0.285 ± 0.091 | -0.00381 ± 0.062 | 0.518 ± 0.028 |
| SAVLRIPNPITGEVRTLTLPTEVPAVSPDGVTSFRSPENLAAAIRALPSDVKVLSVVEHPDGTVTIVVDPSA [r9_997_TrMRF] | -0.0685 ± 0.064 | -0.414 ± 0.15 | 0.102 ± 0.059 |
| SAVPAEGMSPEEAAALAEEVREAFEAEVKAAGGPIPADTVVTVDYALEGSPVTITLTFTTPDSVSTTVASAG [r14_501_JUSTAS] | 0.906 ± 0.06 | 0.57 ± 0.079 | 1.12 ± 0.045 |

| Sequence | folding stability dG unfold [1] [kcal/mol] | folding stability dG unfold [2] [kcal/mol] | folding stability dG unfold [3] [kcal/mol] |
| --- | --- | --- | --- |
| SAVTPISLPSETGTLYRTDTDVILVVLKDPDPSVYRIITLKKKSADIKPLDENILGELSPEEANNPELLSAG [r14_384_JUSTAS] | 0.742 ± 0.081 | 0.756 ± 0.11 | 0.617 ± 0.055 |
| SAWIPIDSPEEAKDIAKEIADNYGLEDTKVEPMPDNYVVVKLEFEMPNENGQKRKRNITIYYDPDGKFWSAG [r14_420_TrROS] | 1.1 ± 0.099 | 1.07 ± 0.083 | 0.973 ± 0.04 |
| SDDKNMKPVKFKVEIEEERIEENGKKYIKIEVTWPGGNTVKIWFDPDKLIITFPVRSVEDVLEEVKDLIKSA [r9_662_TrROS] | 3.06 ± 0.085 | 3.52 ± 0.039 | 2.19 ± 0.064 |
| SDDPKDKKKPKPEITMVPIVFKIPPGDELKIEEDPNGMIEVRVPNGHWIRVWILVNPDGNILNVMIEPWPSA [r9_1195_TrROS] | 2.82 ± 0.23 | 3.21 ± 0.066 | 2.01 ± 0.15 |
| SDIENMPPEQFVHYIREALDEERENNPGEPVRIPIKDLGDKFPGFPPSMLKDMLGLTEDDLNNGPITIRPSA [r9_525_TrROS] | -0.0917 ± 0.23 | -0.189 ± 0.28 | -0.193 ± 0.079 |
| SDKIVKLIKKIMEEMGLPITKITDVEPGWIVIRMPNGWKIDIEIDPDDPDVIDIKWQPDPNGGMYMVIPVSA [r9_809_TrROS] | 2.6 ± 0.21 | 2.65 ± 0.069 | 2.03 ± 0.078 |
| SDLEAVLAAIDAVPPGTVVRIRLTLPDGVPLEITFDAGKEEIKALLEELVKEHPDVPIGIEIEVFPPEELSA [r9_37_TrMRF] | 3.61 ± 0.081 | 3.71 ± 0.093 | 3.38 ± 0.1 |
| SDPNGKPKKRRFYVMITVPHKMKPERDPDGKMEMEHKMPTVMFPFPADDLDDLRDILEPFGISVSLMPLDSA [r9_1209_TrROS] | 1.94 ± 0.093 | 2.14 ± 0.066 | 1.6 ± 0.057 |
| SDREFEAVFLVETPEEVEALARELALPGVEVEVHVLPAPYLDPETGEPRPFLLAVVRVRVPVPPPGPGALSA [r9_962_TrMRF] | 2.12 ± 0.088 | 2.56 ± 0.055 | 0.969 ± 0.044 |
| SDRFTATVEYPDTGKTETIELDPSHLSITVEFTGSATFRVTISYDVNGDTFTVEAEFTAPLAPVPPEAFLSA [r9_1067_TrMRF] | 2.51 ± 0.11 | 2.67 ± 0.028 | 2.25 ± 0.15 |
| SDWKIVDIEREGNWYTITIQFKNPDGNPWMVTLYMPPNGPYRVEVYPPGDGKEREVRVPMDDIDEILDAISA [r9_91_TrROS] | 2.49 ± 0.11 | 2.96 ± 0.038 | 1.33 ± 0.053 |
| SEAEAVTFPVPNPEDGELVADLAVARNPETGEWTVRLEHEDGKTVEVTFPEDEELPVDGLPPGLRATFTGSA [r9_1150_TrMRF] | -0.401 ± 0.13 | -0.916 ± 0.7 | -0.195 ± 0.12 |
| SEEEVEEPEVRVEVREIRLDDLTEEERRRLRELAERLAREEPPEELPPGYRVRVEIRDGVIVSVEVEPVPSA [r9_905_TrROS_Hall] | 1.85 ± 0.16 | 1.9 ± 0.075 | 1.84 ± 0.039 |
| SEIEIEPLTLDEPVEYRVPEGGFTITAYAAPGPLLVRVRIPGTGEEFEIAVPLGEPNWEEVAEAVVRAIRSA [r9_982_TrMRF] | 1.56 ± 0.058 | 1.27 ± 0.086 | 1.759 ± 0.015 |
| SEINFKPVKVDKNGNFYVENETKPGLVEKLIEAIKELFPGVEITEIKEIPEPPKIEIKAKHPSGKEFTFGSA [r9_1164_TrMRF] | 0.825 ± 0.11 | 0.789 ± 0.11 | 0.927 ± 0.074 |
| SEKLTVTLTLTVVTTETRVTYDKETGELTVETRTEVRTLTLTVTADSEEEAKRAVQELLDALEKNPELLSSA [r9_77_TrROS_Hall] | 4.66 ± 0.15 | 4.94 ± 0.13 | 3.8 ± 0.14 |
| SEKLVIFVPPNMTVEEIVALAKKYPDKEIVIVMPPNMSEEQKERILKALRDAGLPEGVKVTIVEVEPEDLSA [r9_670_TrROS_Hall] | 3.85 ± 0.19 | 3.81 ± 0.16 | 3.73 ± 0.095 |
| SEKRMEVEIKIPITMVVPKEMFEPDPDNGRYRFPDNGKPIRPNQVHPMPIEIKGPMPPGDAQKLLKDLLKSA [r9_165_TrROS] | -0.203 ± 0.16 | -0.119 ± 0.11 | -0.347 ± 0.1 |
| SELAEEAAKRAREAFAEEHPGWDVLSVEVEVEKDPNNDVVTVTVKLTLRRESPEPREEVLEEEVTLTFPLKS [r1_181_JUSTAS] | 2.91 ± 0.067 | 3.24 ± 0.043 | 2.14 ± 0.05 |
| SETVTVTVTVTVTLYRRRPDGKWVPIAELTVTVTRTVEKEDEEEARRAVREEVEDELRKLAEELGVEIEPSA [r9_356_TrROS_Hall] | 5.6 ± 0.15 | 5.79 ± 0.12 | 3.94 ± 0.095 |
| SEVVLEVKVEVRVKRNENGELEVEVKVEVKLVELEPPEPRIELSEEEREKLKEEAEKLGLELTDEELEALSA [r9_487_TrROS_Hall] | 1.75 ± 0.2 | 1.87 ± 0.15 | 1.9 ± 0.13 |
